The results in this text go back to paper PMC2527485 (Journal of molecular biology, 2008).

The data set deals with the molecule itself. Briefly: SEC + crystal structure.

B1: E,Z-farnesyl diphosphate synthase (Rv1086) (enzyme)
chain: MEIIPPRLKEPLYRLYELRLRQGLAASKSDLPRHIAVLCDGNRRWARSAGYDDVSYGYRMGAAKIAEMLRWCHEAGIELATVYLLSTENLQRDPDELAALIEIITDVVEEICAPANHWSVRTVGDLGLIGEEPARRLRGAVESTPEVASFHVNVAVGYGGRREIVDAVRALLSKELANGATAEELVDAVTVEGISENLYTSGQPDPDLVIRTSGEQRLSGFLLWQSAYSEMWFTEAHWPAFRHVDFLRALRDYSARHRSYGR
On to B1, for which the stoichiometry N (as a rule, the number of molecules, sites or subunits per partner or assembly) came out at 2.
